Results as given in patent publication EP4806922A2 (Lyvgen Biopharma Holdings Limited, dated 2026).
Read-outs that look alike come from different tables or passages of the source.

Legend:
[1] = target: T1, human CD3D/E protein (human, UniProt P04234 22-105; P07766 23-126); experiment: ELISA or FCM, graded summary
T1 construct: also called human CD3 expressing Jurkat cells

[2] = target: T2, human CD137 protein (human, UniProt Q07011 24-186); experiment: ELISA or FCM, graded summary
T2 construct: also called human CD137 expressing CHO cells
T2 sequence (Q07011 24-186 limits assumed): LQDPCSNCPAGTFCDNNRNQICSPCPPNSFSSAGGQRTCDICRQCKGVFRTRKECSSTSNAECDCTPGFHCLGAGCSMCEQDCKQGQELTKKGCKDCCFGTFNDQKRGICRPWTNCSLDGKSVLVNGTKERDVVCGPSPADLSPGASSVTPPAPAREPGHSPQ

[3] = target: T3, human PD-L1 protein (human, UniProt Q9NZQ7 19-238); experiment: FCM or ELISA, graded summary
T3 sequence (Q9NZQ7 19-238 limits assumed): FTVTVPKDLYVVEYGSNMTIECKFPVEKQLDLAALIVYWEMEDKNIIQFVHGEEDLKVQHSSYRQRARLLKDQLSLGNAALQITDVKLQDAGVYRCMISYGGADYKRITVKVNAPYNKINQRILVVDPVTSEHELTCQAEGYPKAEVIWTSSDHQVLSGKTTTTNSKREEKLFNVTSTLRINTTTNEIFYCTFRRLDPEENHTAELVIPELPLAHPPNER

[4] = target: T4, human BCMA protein (human, UniProt Q02223 1-54); experiment: FCM or ELISA, graded summary
T4 construct: also called human BCMA expressing NCI-H929 cells; human BCMA overexpressing HEK293 cells
T4 sequence (looked up): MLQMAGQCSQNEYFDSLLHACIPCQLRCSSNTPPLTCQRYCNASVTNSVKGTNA

[5] = target: T3, human PD-L1 protein; experiment: FCM or ELISA, graded summary; remark: listed apart in the source
[6] = target: T1, human CD3D/E protein; experiment: FCM or ELISA, graded summary

T1 sequence (P04234 22-105, chain 1 of 2): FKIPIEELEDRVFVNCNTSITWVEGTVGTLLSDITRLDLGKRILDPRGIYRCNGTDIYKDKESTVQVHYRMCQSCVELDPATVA
T1 sequence (P07766 23-126, chain 2 of 2): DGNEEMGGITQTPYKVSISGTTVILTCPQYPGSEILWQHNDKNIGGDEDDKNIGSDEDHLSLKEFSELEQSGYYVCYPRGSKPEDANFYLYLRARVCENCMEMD

B1: Ly305 (anti-CD3 parent) (antibody, V domains shown)
VH: EVQLVESGGGLVQPGGSLRLSCAASGFTFSTYAMNWVRQAPGKGLEWVGRIRSKYNNYATYYADSVKGRFTISRDDSKNSLYLQMNSLKTEDTAVYYCVRHGNFGNSYVSWFAYWGQGTLVTVSS
VL: QAVVTQEPSLTVSPGGTVTLTCRSSTGAVTTSNYANWVQQKPGQAPRGLIGGTNKRAPWTPARFSGSLLGGKAALTITGAQAEDEADYYCALWYSNLWVFGGGTKLTVL
notes: Parent monoclonal antibody used as control; also called anti-CD3 mAb Ly305; parental anti-CD3 mAb
binding result [1]: binds

B2: Ly1630 (anti-CD137 parent) (antibody, V domains shown)
VH: QVQLVQSGAEVKKPGASVKVSCKASGYTFAGFEMHWVRQAPGQGLEWMGAIDPKTGGTDYNQKFKDRVTMTRDTSISTAYMELSRLRSDDTAVYYCARDLGYFDVWGQGTLVTVSS
VL: DIQMTQSPSSLSASVGDRVTITCRASQDIRSNLNWYQQKPGGAVKLLIYYTSRLHSGVPSRFSGSGSGTDYTLTISSLQPEDFATYFCQQSEKLPRTFGGGTKVEIR
notes: Parent monoclonal antibody used as control; also called anti-CD137 mAb Ly1630
binding result [2]: binds

B3: Ly076 (anti-PD-L1 parent) (antibody, V domains shown)
VH: QVQLVQSGAEVKKPGASVKVSCKASGYTFTDFWMSWVRQAPGQGLEWMGQIYPNTGTTHSNEKFKGRVTMTRDTSTSTVYMELSSLRSEDTAVYYCARSYHISTTPNWFAYWGQGTLVTVSS
VL: DIQMTQSPSSLSASVGDRVTITCKASQNVYKKLEWYQQKPGKVPKVLIYHTNILQTGVPSRFSGSGSGTDYTLTISSLQPEDVATYYCYQWNSGPTFGGGTKVEIK
notes: Parent monoclonal antibody used as control; also called anti-PD-L1 mAb Ly076
binding result [3]: binds

B4: Ly2959 (BCMA/CD3/PD-L1) (other)
heavy 1: QVQLVQSGAEVKKPGASVKVSCKASGYTFTNHIIHWVRQAPGQGLEWMGYINPYPGYHAYNEKFQGRATMTSDTSTSTVYMELSSLRSEDTAVYYCARDGYYRDTDVLDYWGQGTLVTVSSASTKGPSVFPLAPSSKSTSGGTAALGCLVKDYFPEPVTVSWNSGALTSGVHTFPAVLQSSGLYSLSSVVTVPSSSLGTQTYICNVNHKPSNTKVDKKVEPKSCGGGGSGGGGSGGGGSGGGGSEVQLVESGGGLVQPGGSLRLSCAASGFTFSTYAMNWVRQAPGKGLEWVGRIRSKYNNYATYYADSVKGRFTISRDDSKNSLYLQMNSLKTEDTAVYYCVRHGNFGNSYVSWFAYWGQGTLVTVSSGGGGSDKTHTCPPCPAPELLGPSVFLFPPKPKDTLMISRTPEVTCVVVDVSHEDPEVKFNWYVDGVEVHNAKTKPREEQYNSTYRVVSVLTVLHQDWLNGKEYKCKVSNKALGAPIEKTISKAKGQPREPQVYTLPPSREEMTKNQVSLWCLVKGFYPSDIAVEWESNGQPENNYKTTPPVLDSDGSFFLYSKLTVDKSRWQQGNVFSCSVMHEALHNHYTQKSLSLSPGKGGGGSGGGGSGGGGSGGGGSQVQLVQSGAEVKKPGASVKVSCKASGYTFTDFWMSWVRQAPGQGLEWMGQIYPNTGTTHSNEKFKGRVTMTRDTSTSTVYMELSSLRSEDTAVYYCARSYHISTTPNWFAYWGQGTLVTVSS
heavy 2: QVQLVQSGAEVKKPGASVKVSCKASGYTFTNHIIHWVRQAPGQGLEWMGYINPYPGYHAYNEKFQGRATMTSDTSTSTVYMELSSLRSEDTAVYYCARDGYYRDTDVLDYWGQGTLVTVSSASTKGPSVFPLAPSSKSTSGGTAALGCLVKDYFPEPVTVSWNSGALTSGVHTFPAVLQSSGLYSLSSVVTVPSSSLGTQTYICNVNHKPSNTKVDKKVEPKSCGGGGSGGGGSGGGGSGGGGSQAVVTQEPSLTVSPGGTVTLTCRSSTGAVTTSNYANWVQQKPGQAPRGLIGGTNKRAPWTPARFSGSLLGGKAALTITGAQAEDEADYYCALWYSNLWVFGGGTKLTVLGGGGSDKTHTCPPCPAPELLGPSVFLFPPKPKDTLMISRTPEVTCVVVDVSHEDPEVKFNWYVDGVEVHNAKTKPREEQYNSTYRVVSVLTVLHQDWLNGKEYKCKVSNKALGAPIEKTISKAKGQPREPQVYTLPPSREEMTKNQVSLSCAVKGFYPSDIAVEWESNGQPENNYKTTPPVLDSDGSFFLVSKLTVDKSRWQQGNVFSCSVMHEALHNRFTQKSLSLSPGKGGGGSGGGGSGGGGSGGGGSDIQMTQSPSSLSASVGDRVTITCKASQNVYKKLEWYQQKPGKVPKVLIYHTNILQTGVPSRFSGSGSGTDYTLTISSLQPEDVATYYCYQWNSGPTFGGGTKVEIK
light: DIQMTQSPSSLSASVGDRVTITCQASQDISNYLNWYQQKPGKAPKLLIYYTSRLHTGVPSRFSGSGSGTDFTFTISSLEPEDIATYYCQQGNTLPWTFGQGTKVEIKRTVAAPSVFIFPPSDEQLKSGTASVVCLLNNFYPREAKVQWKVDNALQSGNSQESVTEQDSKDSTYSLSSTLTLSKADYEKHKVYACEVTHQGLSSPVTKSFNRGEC
notes: Multi-specific (tri-specific) antibody with three different chains HC1, HC2, LC1; also called BCMA(a) /CD3 /PD-L1
binding result [4]: binds | binding result [5]: binds | binding result [6]: binds
